Reference: patent US7629135B2, “Toll-like receptor agonists and antagonists and methods of use thereof” (The Board of Trustees of the University of Illinois, priority 2006, dated 2009)

System: G-CSF transcript in BMDM
Experiment: Cytokine transcript induction in BMDM (RT-PCR, real-time PCR)
Format: cell-based, mouse
Conditions: SAA 1 μM
Description: To investigate the mechanism for SAA-induced G-CSF production, the level of G-CSF transcript in SAA-stimulated BMDM was determined. […] The induction of G-CSF transcript peaked at 4 h after SAA stimulation. Since transcription of the G-CSF gene involves NF-κB binding to the RelA/p65 consensus element in the CK-1 site of the G-CSF promoter (Dunn et al., 1994; Hareng and Hartung, 2002), the role of NF-κB in SAA-stimulated G-CSF expression was determined. […] Using oligonucleotide probe based on the sequence of the CK-1 site (−161 to −152 in the G-CSF promoter), a protein •DNA complex (FIG. 2C) was identified. […] Inclusion of a RelA/p65 antibody blocking peptide in the assay abrogated the immunoprecipitation (FIG. 2D).
TLR2 mediates the effect of SAA in G-CSF expression and neutrophila: To further determine a role of TLR2 in SAA-stimulated G-CSF expression and neutrophilia, wild-type and tlr2^−/− BMDM were stimulated with SAA (1 μM) and the level of G-CSF transcript (FIG. 5A) was determined. SAA induced a 37-fold induction of the mouse G-CSF transcript within 2 h of stimulation. […] Under similar experimental conditions, SAA stimulated increases in the transcripts of M-CSF (encoded by csf1; 11-fold over basal) IL-12p40 (33-fold) and IL-1 receptor antagonist (2.7-fold). In tlr2^−/− BMDM, the SAA-stimulated induction of these transcripts was reduced by 84% (M-CSF), 86% (IL-12p40), and 80% (IL-1 receptor antagonist), respectively. […] The effects of TLR2 gene deletion on SAA-induced G-CSF production and neutrophilia were determined in vivo. Subcutaneous injection of SAA was carried out in wild-type and tlr2^−/− mice for up to 7 days.
Measurement of G-CSF expression: To measure the secreted G-CSF from human monocytes and mouse macrophages in vitro, cells were placed in serum-free DMEM medium and stimulated with the indicated ligands. Cell-free supernatants were collected by centrifugation at 1,000×g for 30 sec and assayed for human or mouse G-CSF using ELISA. Human PBMC were used as 2×10^6 cells/ml/sample, and mouse BMDM were seeded at 10^6 cells/ml and used as 0.5 ml/sample. To measure mouse plasma G-CSF, blood samples were collected and centrifuged at 1,000-2,000×g for 10 min at 4° C. Plasma samples were appropriately diluted and then checked for G-CSF concentration using ELISA. To measure mouse G-CSF transcripts, mouse […] (10^6 cells/ml, 5 ml/sample) were stimulated with 1 μM SAA for different periods of time. Total RNA was isolated with an RNeasy isolation kit (Qiagen) and cDNA was prepared with Superscript reverse transcriptase (Invitrogen). PCR amplification of G-CSF transcripts was accomplished with specific primers (F346: 5′-[…]-3′ (SEQ ID NO:3) and R980: 5′-CAGGGCTCACTGATTT TTTGG-3′) (SEQ ID NO:4), generating a 634-bp fragment. M-actin gene (a 469 bp fragment) was used for verification of equal loading and of RT-PCR efficiency. Real-time quantitative PCR was performed on a ABI PRISM 7000 Sequence Detection System (Applied Biosystems) as described previously (He et al., 2006). All data were analyzed with the ABI PRISM 7000 SDS software (version 1.1). Relative level of mRNA for G-CSF was determined by normalizing with β-actin mRNA level. The sequences of the primers used are: F229 (5′-[…]-3′) (SEQ ID NO:5) and R502 (5′-[…]-3′) (SEQ ID NO:6) for G-CSF and F413 (5′-CCCTAAGGCCAACCGTGAA-3′) (SEQ ID NO:7) and R882 (5′-[…]-3′) (SEQ ID NO:8) for β-actin.

- reduction of IL-1 receptor antagonist transcript induction in tlr2−/− BMDM: 80%
- increase in IL-1 receptor antagonist transcript (wild-type BMDM): 2.7 fold
B1: SAA: Recombinant human SAA purchased from PeproTech; major acute-phase protein of 104 amino acids (protein, UniProt P0DJI8 19-122, looked up)
Serum amyloid A-1 protein: RSFFSFLGEAFDGARDMWRAYSDMREANYIGSDKYFHARGNYDAAKRGPGGAWAAEVITDARENIQRFFGHGAEDSLADQAANEWGRSGKDPNHFRPAGLPEKY
- reduction of G-CSF transcript induction in tlr2−/− vs wild-type BMDM: 94%
- reduction of IL-12p40 transcript induction in tlr2−/− BMDM: 86%
- reduction of M-CSF transcript induction in tlr2−/− BMDM: 84%
- time of peak induction of G-CSF transcript (BMDM, RT-PCR): 4 h
- induction of G-CSF transcript over basal level (tlr2−/− BMDM): 2 fold
- increase in IL-12p40 transcript (wild-type BMDM): 33 fold
- increase in M-CSF transcript over basal (wild-type BMDM): 11 fold
- induction of mouse G-CSF transcript (wild-type BMDM, within 2 h, real-time PCR): 37 fold
